Data reported in patent publication US20260062487A1 (GRITSTONE BIO, published 2026).
Residue numbers refer to the chain shown, from its start.

Assays:
CD3 on CD3+ Jurkat cells = target: T1, CD3 on CD3+ Jurkat cells (human, UniProt P07766 23-207); assay: flow cytometry, anti IgG PE, CD3+ Jurkat cells
T1 construct: whole, on cells
Procedure: Increasing concentrations of the antibodies were incubated with CD3(+) and CD9(−) Jurkat cells. Binding was determined by flow cytometery using an anti IgG-PE antibody for detection.

[1] = target: T2, HLA-PEPTIDE target A*01:01_… (G2) on cells (human); assay: flow cytometry, anti IgG PE, A375 9mer cells (1e6 copies per cell)
T2 construct: whole, on cells; also recovered from cell lysates in the IP-MS experiment; also called G2 pHLA; G2 target
Procedure: A375 transduced with luciferase alone served as the negative control. […] Binding was determined by flow cytometery using an anti IgG-PE antibody for detection.

[2] = target: T3, biotinylated refolded G2-pHLA (A*01:01/b2m/…) (human, biotinylated at the C-terminal AviTag); assay: BLI (ForteBio Octet HTX), biotinylated G2-pHLA captured on streptavidin SAX biosensor, antibody in solution, 1:1 kinetic model
T3 construct: Soluble complex caught on streptavidin sensors or MSD plates; also called G2-peptide A*01:01/b2m complex; WT
Source text: (§1) The biosensors were then dipped in assay buffer for a baseline. […] The biosensors were finally dipped into wells containing assay buffer to measure the dissociation rate for another 50 seconds. Referencing was completed by having a biosensor with no immobilized ligand dipped into analyte. Kinetic data was processed with Octet™ software using a 1:1 kinetic model with errors within 10%, X² below 3, and R² above 0.9.

[3] = target: T3, biotinylated refolded G2-pHLA …; assay: BLI (ForteBio Octet HTX), biotinylated G2-pHLA captured on streptavidin SAX biosensor, antibody in solution, 1:2 Fit
[4] = target: T3, biotinylated refolded G2-pHLA …; assay: BLI (Octet), biotinylated pHLA on streptavidin sensor, bivalent antibody as analyte (apparent affinity)
Source text: as §1

[5] = target: T2, HLA-PEPTIDE target A*01:01_… (G2) on …; assay: flow cytometry, A375 cells engineered to express the G2 peptide
Procedure: Tumor cells engineered to express target peptide were harvested, washed in PBS, and stained with eBioscience Fixable Viability Dye eFluor 450 for 15 minutes at room temperature. Following another wash in PBS+1-2% FBS, cells were resuspended with the indicated molecules at varying concentrations and incubated for 1 hour at 4° C. After another wash, PE-conjugated goat anti-human IgG secondary antibody (Jackson ImmunoResearch) was added at 1:100 to 1:200 for 30 minutes at 4° C. After washing in PBS+1-2% FBS, cells were resuspended in PBS+1-2% FBS and analyzed by flow cytometry. Flow cytometric analysis was performed on the Attune NxT Flow Cytometer (ThermoFisher) using the Attune NxT Software. Data was analyzed using FlowJo.

[6] = target: T3, biotinylated refolded G2-pHLA …; assay: BLI (ForteBio Octet HTX), biotinylated G2-pHLA captured on streptavidin SAX biosensor, antibody in solution, 1:1 Fit
Source text: as §1

[7] = target: biotinylated G5-pHLA (HLA-B*35:01 with …) (human); assay: BLI (ForteBio Octet HTX), biotinylated G5-pHLA captured on streptavidin SAX biosensor, antibody in solution, 1:2 Fit
[8] = target: biotinylated G5-pHLA (HLA-B*35:01 with …) (human); assay: BLI (ForteBio Octet HTX), biotinylated G5-pHLA captured on streptavidin SAX biosensor, antibody in solution, 1:1 Fit
Source text: as §1

T1 sequence (P07766 23-207): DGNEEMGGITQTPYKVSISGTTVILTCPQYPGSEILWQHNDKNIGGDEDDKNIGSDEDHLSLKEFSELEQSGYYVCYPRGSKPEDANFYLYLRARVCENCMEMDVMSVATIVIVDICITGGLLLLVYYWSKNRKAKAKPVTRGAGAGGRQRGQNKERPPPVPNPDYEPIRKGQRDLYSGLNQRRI

B1: 41-E07 hSP34x (Format 41 31E07-CD3 bispecific antibody) (bispecific antibody)
chain: QVQLVQSGAEVKKPGASVKVSCKASGFTFTNYLIHWVRQAPGQGLEWMGWINPNSGGTNYAQRLQGRVTMTRDTSTSTVYMELSSLRSEDTAVYYCARDYGAGNDYWGQGTLVTVSSGGGGSGGGGSDIQMTQSPSSLSASVGDRVTITCRASQEIRRWLAWYQQKPGKAPKLLIYAASNLQSGVPSRFSGSGSGTDFTLTISSLQPEDFATYYCQQSYSTPYTFGQGTKLEIKGGGGSEPKSSDKTHTCPPCPAPEFEGGPSVFLFPPKPKDTLMISRTPEVTCVVVDVSHEDPEVKFNWYVDGVEVHNAKTKPREEQYNSTYRVVSVLTVLHQDWLNGKEYKCKVSNKALPASIEKTISKAKGQPREPQVYTLPPCREEMTKNQVSLWCLVKGFYPSDIAVEWESNGQPENNYKTTPPVLDSDGSFFLYSKLTVDKSRWQQGNVFSCSVMHEALHNHYTQKSLSLSPGK
heavy: QVQLVQSGAEVKKPGASVKVSCKASGFTFTNYLIHWVRQAPGQGLEWMGWINPNSGGTNYAQRLQGRVTMTRDTSTSTVYMELSSLRSEDTAVYYCARDYGAGNDYWGQGTLVTVSSGGGGSGGGGSDIQMTQSPSSLSASVGDRVTITCRASQEIRRWLAWYQQKPGKAPKLLIYAASNLQSGVPSRFSGSGSGTDFTLTISSLQPEDFATYYCQQSYSTPYTFGQGTKLEIKGGGGSGGGGSEVQLVESGGGLVQPGGSLRLSCAASGFTFSTYAMNWVRQAPGKGLEWVGRIRSKYNNYATYYADSVKGRFTISRDDSKNTLYLQMNSLRAEDTAVYYCVRHGNFGDSYVSWFAYWGQGTLVTVSSASTKGPSVFPLAPSSKSTSGGTAALGCLVKDYFPEPVTVSWNSGALTSGVHTFPAVLQSSGLYSLSSVVTVPSSSLGTQTYICNVNHKPSNTKVDKRVEPKSCDKTHTCPPCPAPEFEGGPSVFLFPPKPKDTLMISRTPEVTCVVVDVSHEDPEVKFNWYVDGVEVHNAKTKPREEQYNSTYRVVSVLTVLHQDWLNGKEYKCKVSNKALPASIEKTISKAKGQPREPQVCTLPPSREEMTKNQVSLSCAVKGFYPSDIAVEWESNGQPENNYKTTPPVLDSDGSFFLVSKLTVDKSRWQQGNVFSCSVMHEALHNRFTQKSLSLSPGK
light: QAVVTQEPSLTVSPGGTVTLTCGSSTGAVTTSNYANWVQQKPGKSPRGLIGGTNKRAPGVPARFSGSLLGGKAALTISGAQPEDEADYYCALWYSNHWVFGGGTKLTVLRTVAAPSVFIFPPSDEQLKSGTASVVCLLNNFYPREAKVQWKVDNALQSGNSQESVTEQDSKDSTYSLSSTLTLSKADYEKHKVYACEVTHQGLSSPVTKSFNRGEC
notes: also called 41-31E07-hSP34x
Which results are given for B1?
EC50 (read off the curve) (CD3 on CD3+ Jurkat cells): ~6 nM; EC50 (read off the curve) [1]: ~2 nM

B2: Format 4-G2(1H11) hOKT3a (non-shortened linkers, without DSB) (bispecific antibody, human IgG1, kappa, N297Q)
chain: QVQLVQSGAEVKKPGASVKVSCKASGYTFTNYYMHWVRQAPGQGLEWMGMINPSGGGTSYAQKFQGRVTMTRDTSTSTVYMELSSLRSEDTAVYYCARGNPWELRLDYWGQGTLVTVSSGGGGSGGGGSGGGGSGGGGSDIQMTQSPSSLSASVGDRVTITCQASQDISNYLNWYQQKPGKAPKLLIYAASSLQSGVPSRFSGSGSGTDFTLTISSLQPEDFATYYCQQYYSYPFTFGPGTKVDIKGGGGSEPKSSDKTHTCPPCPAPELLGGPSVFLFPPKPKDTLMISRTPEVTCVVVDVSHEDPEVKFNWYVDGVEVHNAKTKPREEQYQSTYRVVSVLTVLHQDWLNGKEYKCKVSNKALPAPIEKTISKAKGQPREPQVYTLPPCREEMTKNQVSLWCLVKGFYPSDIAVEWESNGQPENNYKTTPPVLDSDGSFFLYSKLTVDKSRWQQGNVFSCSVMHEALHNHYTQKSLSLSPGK
heavy: QVQLVQSGAEVKKPGASVKVSCKASGYTFTNYYMHWVRQAPGQGLEWMGMINPSGGGTSYAQKFQGRVTMTRDTSTSTVYMELSSLRSEDTAVYYCARGNPWELRLDYWGQGTLVTVSSGGGGSGGGGSGGGGSGGGGSDIQMTQSPSSLSASVGDRVTITCQASQDISNYLNWYQQKPGKAPKLLIYAASSLQSGVPSRFSGSGSGTDFTLTISSLQPEDFATYYCQQYYSYPFTFGPGTKVDIKGGGGSGGGGSQVQLVQSGAEVKKPGASVKVSCKASGYTFTRYTMHWVRQAPGQGLEWMGYINPSRGYTNYNQKFKDRVTLTTDKSSSTAYMELSSLRSEDTAVYYCARYYDDHYSLDYWGQGTLVTVSSASTKGPSVFPLAPSSKSTSGGTAALGCLVKDYFPEPVTVSWNSGALTSGVHTFPAVLQSSGLYSLSSVVTVPSSSLGTQTYICNVNHKPSNTKVDKRVEPKSCDKTHTCPPCPAPELLGGPSVFLFPPKPKDTLMISRTPEVTCVVVDVSHEDPEVKFNWYVDGVEVHNAKTKPREEQYQSTYRVVSVLTVLHQDWLNGKEYKCKVSNKALPAPIEKTISKAKGQPREPQVCTLPPSREEMTKNQVSLSCAVKGFYPSDIAVEWESNGQPENNYKTTPPVLDSDGSFFLVSKLTVDKSRWQQGNVFSCSVMHEALHNRFTQKSLSLSPGK
light: DIQMTQSPSSLSASVGDRVTITCSASSSVSYMNWYQQKPGKAPKRLIYDTSKLASGVPSRFSGSGSGTDFTLTISSLQPEDFATYYCQQWSSNPFTFGQGTKLEIKRTVAAPSVFIFPPSDEQLKSGTASVVCLLNNFYPREAKVQWKVDNALQSGNSQESVTEQDSKDSTYSLSSTLTLSKADYEKHKVYACEVTHQGLSSPVTKSFNRGEC
notes: In solution a mixture of 2xscFv and diabody conformations; also called G2 Format 4 bispecific; G2(1H11)hOKT3a 2xscFv
B2 was tested. Which koff [2] did it give?
The koff was 0.00397 s⁻¹.

And the Kd [3]?
The Kd was 1640 nM.

And the koff [3]?
Its koff is 0.324 s⁻¹.

And the kon [3]?
Its kon is 198000 M⁻¹ s⁻¹.

And the Kd [4]?
Its Kd is 18 nM.

What about the EC50 [5] of the same binder?
Its EC50 is 9.8 nM.

And the Kd [6]?
Its Kd is 30.3 nM.

And the koff [6]?
The koff was 0.0277 s⁻¹.

What about the kon [6] of the same binder?
Its kon is 913000 M⁻¹ s⁻¹.

B3: Format 4-G2(1H11) hOKT3a with shortened 10 amino acid L1 and L2 linkers (bispecific antibody, human IgG1, kappa, N297Q)
chain: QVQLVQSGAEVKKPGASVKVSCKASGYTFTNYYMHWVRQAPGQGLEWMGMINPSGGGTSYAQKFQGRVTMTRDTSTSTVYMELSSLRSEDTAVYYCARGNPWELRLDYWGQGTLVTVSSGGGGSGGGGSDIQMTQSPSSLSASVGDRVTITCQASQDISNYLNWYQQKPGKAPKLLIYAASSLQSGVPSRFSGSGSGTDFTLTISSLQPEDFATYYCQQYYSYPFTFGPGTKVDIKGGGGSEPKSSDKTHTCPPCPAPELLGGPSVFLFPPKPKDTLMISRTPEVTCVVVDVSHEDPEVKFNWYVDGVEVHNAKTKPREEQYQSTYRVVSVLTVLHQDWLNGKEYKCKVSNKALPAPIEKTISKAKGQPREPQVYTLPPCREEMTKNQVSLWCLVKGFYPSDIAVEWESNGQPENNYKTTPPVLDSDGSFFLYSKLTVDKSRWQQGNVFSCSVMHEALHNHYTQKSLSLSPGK
heavy: QVQLVQSGAEVKKPGASVKVSCKASGYTFTNYYMHWVRQAPGQGLEWMGMINPSGGGTSYAQKFQGRVTMTRDTSTSTVYMELSSLRSEDTAVYYCARGNPWELRLDYWGQGTLVTVSSGGGGSGGGGSDIQMTQSPSSLSASVGDRVTITCQASQDISNYLNWYQQKPGKAPKLLIYAASSLQSGVPSRFSGSGSGTDFTLTISSLQPEDFATYYCQQYYSYPFTFGPGTKVDIKGGGGSGGGGSQVQLVQSGAEVKKPGASVKVSCKASGYTFTRYTMHWVRQAPGQGLEWMGYINPSRGYTNYNQKFKDRVTLTTDKSSSTAYMELSSLRSEDTAVYYCARYYDDHYSLDYWGQGTLVTVSSASTKGPSVFPLAPSSKSTSGGTAALGCLVKDYFPEPVTVSWNSGALTSGVHTFPAVLQSSGLYSLSSVVTVPSSSLGTQTYICNVNHKPSNTKVDKRVEPKSCDKTHTCPPCPAPELLGGPSVFLFPPKPKDTLMISRTPEVTCVVVDVSHEDPEVKFNWYVDGVEVHNAKTKPREEQYQSTYRVVSVLTVLHQDWLNGKEYKCKVSNKALPAPIEKTISKAKGQPREPQVCTLPPSREEMTKNQVSLSCAVKGFYPSDIAVEWESNGQPENNYKTTPPVLDSDGSFFLVSKLTVDKSRWQQGNVFSCSVMHEALHNRFTQKSLSLSPGK
light: B2 light
notes: also called 4-G2(1H11)-10AAL hOKT3a; G2(1H11)_10AAL
What does the source list for B3?
Kd [3]: 301 nM; koff [3]: 0.0746 s⁻¹; kon [3]: 248000 M⁻¹ s⁻¹; Kd [6]: 6.35 nM; koff [6]: 0.00608 s⁻¹; kon [6]: 958000 M⁻¹ s⁻¹

B4: 41-G5(1C12) hOKT3a (Format 4-G5(1C12) hOKT3a with shortened 10 amino acid L1 and L2 linkers) (bispecific antibody, human IgG1, kappa, N297Q)
chain: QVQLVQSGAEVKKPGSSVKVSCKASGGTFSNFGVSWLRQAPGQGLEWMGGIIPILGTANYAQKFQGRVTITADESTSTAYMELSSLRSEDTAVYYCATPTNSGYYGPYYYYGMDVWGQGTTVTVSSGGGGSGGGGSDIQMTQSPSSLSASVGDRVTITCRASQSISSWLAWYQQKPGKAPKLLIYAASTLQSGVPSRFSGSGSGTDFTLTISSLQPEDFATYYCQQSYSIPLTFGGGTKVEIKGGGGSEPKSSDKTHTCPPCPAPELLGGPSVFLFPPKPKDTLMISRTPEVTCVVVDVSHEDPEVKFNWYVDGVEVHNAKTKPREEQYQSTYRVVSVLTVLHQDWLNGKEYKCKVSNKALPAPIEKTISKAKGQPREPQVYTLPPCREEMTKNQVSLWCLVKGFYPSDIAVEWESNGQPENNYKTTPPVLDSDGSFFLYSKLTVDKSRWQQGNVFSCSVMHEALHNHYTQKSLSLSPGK
heavy: QVQLVQSGAEVKKPGSSVKVSCKASGGTFSNFGVSWLRQAPGQGLEWMGGIIPILGTANYAQKFQGRVTITADESTSTAYMELSSLRSEDTAVYYCATPTNSGYYGPYYYYGMDVWGQGTTVTVSSGGGGSGGGGSDIQMTQSPSSLSASVGDRVTITCRASQSISSWLAWYQQKPGKAPKLLIYAASTLQSGVPSRFSGSGSGTDFTLTISSLQPEDFATYYCQQSYSIPLTFGGGTKVEIKGGGGSGGGGSQVQLVQSGAEVKKPGASVKVSCKASGYTFTRYTMHWVRQAPGQGLEWMGYINPSRGYTNYNQKFKDRVTLTTDKSSSTAYMELSSLRSEDTAVYYCARYYDDHYSLDYWGQGTLVTVSSASTKGPSVFPLAPSSKSTSGGTAALGCLVKDYFPEPVTVSWNSGALTSGVHTFPAVLQSSGLYSLSSVVTVPSSSLGTQTYICNVNHKPSNTKVDKRVEPKSCDKTHTCPPCPAPELLGGPSVFLFPPKPKDTLMISRTPEVTCVVVDVSHEDPEVKFNWYVDGVEVHNAKTKPREEQYQSTYRVVSVLTVLHQDWLNGKEYKCKVSNKALPAPIEKTISKAKGQPREPQVCTLPPSREEMTKNQVSLSCAVKGFYPSDIAVEWESNGQPENNYKTTPPVLDSDGSFFLVSKLTVDKSRWQQGNVFSCSVMHEALHNRFTQKSLSLSPGK
light: B2 light
notes: also called 4-G5(1C12)_10AAL hOKT3a; G5(1C12)_10AAL
How did the Kd [7] turn out when B4 was run?
The Kd was 16.1 nM.

And the koff [7]?
The koff was 0.00652 s⁻¹.

And the kon [7]?
Its kon is 405000 M⁻¹ s⁻¹.

And the Kd [8]?
The Kd was 2.2 nM.

And the koff [8]?
Its koff is 0.00279 s⁻¹.

And the kon [8]?
Its kon is 1.27e+06 M⁻¹ s⁻¹.

B5: Format 4-G2(1H11) hOKT3a with engineered VH44/VL100 disulfide bond (DSB) (bispecific antibody, human IgG1, kappa, N297Q)
chain: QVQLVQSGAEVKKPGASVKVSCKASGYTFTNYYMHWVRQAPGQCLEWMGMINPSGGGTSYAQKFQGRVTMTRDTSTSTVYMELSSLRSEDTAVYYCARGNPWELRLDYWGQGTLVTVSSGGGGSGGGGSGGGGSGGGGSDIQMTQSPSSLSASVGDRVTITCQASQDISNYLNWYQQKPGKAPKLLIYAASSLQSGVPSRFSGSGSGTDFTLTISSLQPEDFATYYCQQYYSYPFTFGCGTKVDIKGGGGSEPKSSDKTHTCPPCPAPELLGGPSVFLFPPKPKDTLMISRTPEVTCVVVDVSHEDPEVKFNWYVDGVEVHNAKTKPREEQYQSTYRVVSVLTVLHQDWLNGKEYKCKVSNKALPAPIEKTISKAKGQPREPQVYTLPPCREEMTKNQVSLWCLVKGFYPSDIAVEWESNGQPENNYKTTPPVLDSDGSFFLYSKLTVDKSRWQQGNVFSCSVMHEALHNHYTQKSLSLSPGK
heavy: B2 heavy with G44C, P239C
light: B2 light
notes: also called 4-G2(1H11)-H44/L100 hOKT3a-TM; Format 4 G2(1H11)-hOKT3_DSBH44/L100
For B5, which koff [2] is on record?
Its koff is 0.025 s⁻¹.

And the Kd [4]?
Its Kd is 35.1 nM.

What about the EC50 [5] of the same binder?
The EC50 was 1750 nM.
